Experimental findings from patent US11472840B2, “Acetylcholine receptor-binding peptide” (AMICOGEN, INC., priority 2017, dated 2022) are described below.

The target in one assay is acetylcholine receptor (Homo sapiens, UniProt P02708). Nature of the assay: Surface plasmon resonance (SPR) affinity measurement on a biosensor chip (Biacore 3000). The settings on record: running buffer 20 mM Tris pH 7.4, peptide 0.1 to 0.5 μM, higher binding than Synake (FIG. 10). The method, then:
A surface plasmon resonance (SPR) experiment was progressed using a biosensor chip to check affinity values for acetylcholine receptors of S6_1 (SEQ ID NO: 23, WTWKGKGTLNR), i.e., discovered peptides and Synake, i.e., a positive control group (Biacore 3000, Biacore AB, Uppsala, Sweden). […] A binding ability comparing experiment was carried out under observation conditions of a running buffer of 20 mM Tris (pH 7.4), a speed of 30 ? /min, a concentration of 10 to 50 μM (Synake), and a concentration of 0.1 to 10 μM (peptides S6_1). Respective results of the binding ability comparing experiment are shown in FIG. 7 (Synake) and FIG. 8 (peptides S6_1).
A surface plasmon resonance (SPR) experiment was progressed using a biosensor chip to check affinity values for acetylcholine receptors of optimized S6_1_C9 peptides (SEQ ID NO: 28, WKGKGTLNR) prepared in Example 6 (Biacore 3000, Biacore AB, Uppsala, Sweden).
An experiment of measuring affinity values of the peptides was carried out under observation conditions of a running buffer of 20 mM Tris (pH 7.4), a speed of 30 ? /min, and a concentration of 0.1 to 0.5 μM (peptides S6_1_C9).
(SPR reads the build-up and loss of mass on a sensor chip optically.)

The target in assay [1] is acetylcholine receptor (AchR) alpha 1. As to the kind of experiment: SPR (Biacore 3000), AchR coupled to chip, peptide 0.1 to 0.5 uM; reference Synake.
Chain of acetylcholine receptor (AchR) alpha 1 (P02708 whole entry): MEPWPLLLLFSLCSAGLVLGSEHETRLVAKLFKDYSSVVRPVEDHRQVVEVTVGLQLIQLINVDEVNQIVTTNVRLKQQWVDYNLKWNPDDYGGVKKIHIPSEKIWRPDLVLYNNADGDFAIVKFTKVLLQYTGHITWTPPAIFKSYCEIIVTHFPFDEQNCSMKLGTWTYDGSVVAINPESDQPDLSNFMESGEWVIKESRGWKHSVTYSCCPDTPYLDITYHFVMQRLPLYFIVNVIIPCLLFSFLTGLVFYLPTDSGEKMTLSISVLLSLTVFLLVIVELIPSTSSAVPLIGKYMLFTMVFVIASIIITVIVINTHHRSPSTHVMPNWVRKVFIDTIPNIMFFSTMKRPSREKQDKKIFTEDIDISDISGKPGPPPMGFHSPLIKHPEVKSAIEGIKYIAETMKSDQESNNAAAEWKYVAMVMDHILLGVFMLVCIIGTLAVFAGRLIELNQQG

Chain of acetylcholine receptor (P02708 21-457): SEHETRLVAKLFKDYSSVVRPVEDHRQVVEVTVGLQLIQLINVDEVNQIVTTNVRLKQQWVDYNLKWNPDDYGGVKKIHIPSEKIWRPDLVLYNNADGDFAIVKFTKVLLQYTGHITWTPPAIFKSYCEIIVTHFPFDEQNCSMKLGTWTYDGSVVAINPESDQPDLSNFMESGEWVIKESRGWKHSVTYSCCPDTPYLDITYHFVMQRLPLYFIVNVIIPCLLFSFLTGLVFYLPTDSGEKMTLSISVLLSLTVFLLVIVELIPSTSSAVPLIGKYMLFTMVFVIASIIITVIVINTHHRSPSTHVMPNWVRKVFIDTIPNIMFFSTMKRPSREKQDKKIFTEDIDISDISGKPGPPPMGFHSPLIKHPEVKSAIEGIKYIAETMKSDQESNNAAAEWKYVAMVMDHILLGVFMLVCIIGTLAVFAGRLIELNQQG

For WKGKGTLNR (Ach-R) [S6_1_C9], in the assay with acetylcholine receptor, the “binding ability for acetylcholine receptor relative to Synake” value is on record as “about 100 times”.
In the case of WKGKGTLNR [S6_1_C9], the binding abilities, fold higher than Synake in assay [1] was found to be 100 times.
